Source: patent US7205387B2, “Recombinant polypeptide useful for neurotrophin receptor mediated gene delivery and as neurotrophin agonist” (Agency for Science, Technology and Research, priority 2003, dated 2007)
Bridge positions count the residues as written; N and C are the ends. Ends that are not written are not given here.

How the values were obtained:
primary cortical neurons = assay: Gene delivery to primary cultures of cortical neurons; format: cell-based, rat
Procedure: Primary cultures of neurons were established from the cortices of embryonic Wistar rats at gestational day 20. Cortices freed of meninges were dissected and individual cells were dispersed mechanically by trituration of minced tissue in 3 ml DMEM medium supplemented with 2% FBS. The suspension was allowed to settle in a centrifuge tube. The cells in the supernatant were collected by centrifugation and resuspended gently in DMEM with 10% FBS. Viability of the cells was assessed prior to plating using trypan blue. Cells were plated onto microplates pre-coated with poly-L-lysine/laminin at a density of 7.5×10^5 viable cells/cm^2. After a two-hour incubation period to allow neurons to attach, the medium and unattached cells were removed and replaced by serum-free DMEM/F12 medium with 1% N2 supplement (Invitrogen, Carlsbad, Calif., USA). The cell were then incubated at 37° C. in 5% CO2 in a humidified incubator. After 2–5 days of culture, the neuron cells were used for transfection experiments. Gene delivery complexes were also tested on primary cultures of cortical neurons and glial cells in a similar fashion. […] Four hours later, an equal volume of DMEM-F12/N2 was added. One to two days after transfection, the cell culture medium was removed and the cells were rinsed in phosphate-buffered saline (PBS). Enough Reporter Lysis Buffer (Promega, Wisconsin, Md., USA) to cover the bottom surface was added to each well (50 μl/well for 48-well plates). After one freeze-thaw cycle, the lysates were tested for luciferase activity using the Luciferase Assay System (Promega) and a single-tube luminometer (Berthold Lumat L B 9507, Bad Wildbad, Germany). The total protein concentration of each lysate was determined using the DC Protein assay (Bio-Rad, Hercules, Calif., USA). The results were expressed in relative light units (RLU) per milligram of total protein.

[1] = tested on: dorsal root ganglia (DRG); assay: Gene delivery in vivo, intrathecal injection, dorsal root ganglia; parameters: species or system rat; details: 3 days
Text: In vivo gene delivery was studied by intrathecal injections of adult Wistar rats (8 weeks old, 180–200 g). The rats were anesthetized by intraperitoneal injection of sodium pentobarbital. After the skin around L4–L5 was exposed, the gene delivery complex was slowly injected into the subarachnoid space using a syringe. A slight tail movement accompanied correct placement of the needle. After injection, the syringe was left in place for five minutes to limit diffusion caused by backflow pressure. Multiple injections were sometimes required to deliver the full volume of the complex. After injection, the skin was closed with surgical clips and the animals were kept warm until they recovered. […] The lumbar segment of the spinal cord and the lumbar dorsal root ganglia were excised. The tissues were homogenized in 100–400 μl of Reporter Lysis Buffer (Promega) depending on size and subjected to three freeze-thaw cycles. The lysates were centrifuged at 14000 g for 5 min at 4° C. The supernatant was tested for luciferase activity using the Luciferase Assay System (Promega) in a single-tube luminometer (Berthold Lumat LB 9507). The readings were normalized by the total protein content of the lysates, as measured by the DC Protein assay (Bio-Rad).

TrkA = biological target: T1, TrkA (Rattus norvegicus, UniProt P35739); assay: Phospho-TrkA immunoblot in PC12 cells; format: cell-based
T1 construct: endogenous in cells; host or cells: PC12 (rat pheochromocytoma, ATCC)
Procedure: (§1) Immunoblotting experiments were conducted to test whether the chimeric polypeptides could, like NGF, induce autophosphorylation of TrkA and activation of its signal transduction pathways. PC12 cells were seeded in 6-well plates at a density of 2×10^6 cells/well and cultured in RPMI 1640 containing 0.5% FBS and 0.25% horse serum for 2 days. The low serum concentrations were necessary to reduce the basal levels of phosphorylation. The medium was refreshed two hours before beginning treatment. The cells were incubated with the polypeptides or NGF in serum-free medium for 15–20 min. The cells were then washed in PBS, lysed, and sonicated. The cell lysates were resolved by SDS-PAGE and transferred to a nitrocellulose membrane for immunoblotting. The primary antibodies used include Phospho-TrkA (Tyr490) antibody, Phospho-p44/p42 MAPK (Thr202/Tyr204) monoclonal antibody, and Phospho-Akt (Ser473) monoclonal antibody, all obtained from Cell Signaling Technology (Beverly, Mass., USA). Colorimetric detection was performed by standard techniques after using horse-radish peroxidase-conjugated secondary antibodies. In some experiments, TrkA tyrosine kinase inhibitors K-252a or AG879 (both from Calbiochem, La Jolla, Calif., USA) were used. In these cases, PC12 cells were incubated with 100 nM K-252a or 10 μM AG879 before addition of polypeptides or NGF.

Erk1 and Erk2 = assay: Phospho-Erk1/Erk2 (p44/p42 MAPK) immunoblot in PC12 cells; format: cell-based, rat
Procedure: as §1

T1 sequence (P35739 33-799): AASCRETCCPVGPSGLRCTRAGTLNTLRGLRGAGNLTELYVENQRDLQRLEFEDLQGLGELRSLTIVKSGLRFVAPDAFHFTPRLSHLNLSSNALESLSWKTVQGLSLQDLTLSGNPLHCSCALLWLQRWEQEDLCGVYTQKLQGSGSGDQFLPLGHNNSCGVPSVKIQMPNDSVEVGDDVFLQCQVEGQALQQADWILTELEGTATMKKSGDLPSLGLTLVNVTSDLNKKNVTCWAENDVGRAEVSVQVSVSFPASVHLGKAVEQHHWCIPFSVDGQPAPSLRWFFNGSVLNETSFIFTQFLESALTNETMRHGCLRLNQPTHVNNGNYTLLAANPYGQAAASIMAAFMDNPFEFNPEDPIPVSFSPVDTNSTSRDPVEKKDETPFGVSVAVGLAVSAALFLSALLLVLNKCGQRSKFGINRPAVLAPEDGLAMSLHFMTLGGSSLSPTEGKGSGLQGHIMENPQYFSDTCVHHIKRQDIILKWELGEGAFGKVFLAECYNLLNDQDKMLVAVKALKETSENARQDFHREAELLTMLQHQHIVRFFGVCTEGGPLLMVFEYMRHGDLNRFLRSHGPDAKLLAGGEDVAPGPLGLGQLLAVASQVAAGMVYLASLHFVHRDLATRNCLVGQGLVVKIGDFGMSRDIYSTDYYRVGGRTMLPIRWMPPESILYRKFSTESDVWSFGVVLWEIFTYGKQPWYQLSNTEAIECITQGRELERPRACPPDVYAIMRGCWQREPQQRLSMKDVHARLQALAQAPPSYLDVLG

Molecule	gene transfer efficiency relative to the non-targeted control (10K) (primary cortical neurons; peptide/DNA 0.75 nmol/μg (N/P ratio of 2.5), chloroquine) [fold]	luciferase gene expression in DRG relative to PEI600/pCAGluc/10K ([1]; 3 μg pCAGluc, PEI600 N/P 5, peptide N/P 5, intralumbar)	activation (phosphorylation) of TrkA (TrkA; 5 μM peptide, 20 min)	activity when complexed with DNA (TrkA; NL4-10K/DNA complexes (N/P ratio of 5))	activation (phosphorylation) of Erk 1 and Erk 2 (Erk1 and Erk2; 5 μM peptide, 20 min)	effectiveness of triple complexes relative to (SPKR)4 triple complexes (primary cortical neurons; 0.25 μg/well pCAGluc, PEI600, 24 h)	transgene expression in lumbar DRG relative to PEI600/pCAGluc control ([1]; 4 μg pCAGluc, PEI600 N/P 5, 32 nmol peptide, intrathecal)	activation of TrkA (phospho-TrkA Western blot) (TrkA; 8 μM, 20 min)	Erk1 and Erk2 activation compared with (SPKR)4 control (Erk1 and Erk2; 1–8 μM, 15 min)
CTTTHTFVKALTMDGKQAAWRFIRIDTACKKKKKKKKKK (CTTTHTFVKALTMDGKQAAWRFIRIDTACKKKKKKKKKK; disulfide 1-29) [NL4-10K]	22	twice as high	induced activation	retained its activity	induced activation	–	–	–	–
SPKR4NL1-2: chimeric protein: (SPKR)4 DNA-binding domain, α-helical linker, targeting domain with loops 1 and 2 of NGF (aa 17–67), His10 tag (protein, SPKR4NL1-2) MGHHHHHHHHHHSSGHIEGRHMSPKRSPKRSPKRSPKRGGTYLSEDELKAAEAAFKRHNPTGSCSVSVWVGDKTTATDIKGKEVMVLGEVNINNSVFKQYFFETKCRDPNPVDSG	–	–	–	–	–	nine times	nine times	activates TrkA	higher level of Erk1 and Erk2 activation
